Laboratory results reported in patent US7985567B2, “Host cells and methods for producing 3-methyl-2-buten-1-ol, 3-methyl-3-buten-1-ol, and 3-methyl-butan-1-ol” (The Regents of the University of California, priority 2007, dated 2011).

System: S. cerevisiae BY4741 transformed with pESC expressing a reductase candidate gene
Experiment: Screening of reductase candidates for reduction of 3-methyl-2-butenol to 3-methyl-butanol
Format: cell-based, Saccharomyces cerevisiae
Conditions: 3-methyl-2-butenol 1 g/l; relative to controls; FIGS. 4 and 5
Procedure: To identify enzymes with the capability to catalyze the reduction 3-methyl-2-butenol to 3-methyl-butanol the following assay system was employed. 5 ml of synthetic defined medium lacking leucine with 1.8% galactose and 0.2% glucose was inoculated with an overnight culture of S. cerevisiae BY4741 freshly transformed with a vector (pESC) expressing a reductase candidate gene to achieve a final absorbance of 0.5 at 600 nm (A600). The cultures were grown at 30° C. at 200 r.p.m. After 48 hours, 3-methyl-2-butenol (1 g/l) was added to the culture.
Cultures were sampled for isopentanol production after addition of 3-methyl-2-butenol as described in Example 3.

Row | Molecule | isopentanol production from 3-methyl-2-butenol by yeast over-expressing the reductase
1 | OYE3: Old yellow enzyme family reductase of S. cerevisiae, gene locus YPL171c (protein, UniProt P41816 2-400, looked up) NADPH dehydrogenase 3: PFVKGFEPISLRDTNLFEPIKIGNTQLAHRAVMPPLTRMRATHPGNIPNKEWAAVYYGQRAQRPGTMIITEGTFISPQAGGYDNAPGIWSDEQVAEWKNIFLAIHDCQSFAWVQLWSLGWASFPDVLARDGLRYDCASDRVYMNATLQEKAKDANNLEHSLTKDDIKQYIKDYIHAAKNSIAAGADGVEIHSANGYLLNQFLDPHSNKRTDEYGGTIENRARFTLEVVDALIETIGPERVGLRLSPYGTFNSMSGGAEPGIIAQYSYVLGELEKRAKAGKRLAFVHLVEPRVTDPSLVEGEGEYSEGTNDFAYSIWKGPIIRAGNYALHPEVVREQVKDPRTLIGYGRFFISNPDLVYRLEEGLPLNKYDRSTFYTMSAEGYTDYPTYEEAVDLGWNKN | significant increase in isopentanol production
2 | OYE2: Old yellow enzyme family reductase of S. cerevisiae, gene locus YHR179w (protein, UniProt Q03558 2-400, looked up) NADPH dehydrogenase 2: PFVKDFKPQALGDTNLFKPIKIGNNELLHRAVIPPLTRMRAQHPGNIPNRDWAVEYYAQRAQRPGTLIITEGTFPSPQSGGYDNAPGIWSEEQIKEWTKIFKAIHENKSFAWVQLWVLGWAAFPDTLARDGLRYDSASDNVYMNAEQEEKAKKANNPQHSITKDEIKQYVKEYVQAAKNSIAAGADGVEIHSANGYLLNQFLDPHSNNRTDEYGGSIENRARFTLEVVDAVVDAIGPEKVGLRLSPYGVFNSMSGGAETGIVAQYAYVLGELERRAKAGKRLAFVHLVEPRVTNPFLTEGEGEYNGGSNKFAYSIWKGPIIRAGNFALHPEVVREEVKDPRTLIGYGRFFISNPDLVDRLEKGLPLNKYDRDTFYKMSAEGYIDYPTYEEALKLGWDKN | significant increase in isopentanol production
